{
  "source": "patent WO2021180110A1",
  "about": "(dated 2021)",
  "binders": {"B1": {"name": "CD147 (receptor, human, UniProt P35613-2 22-205, looked up)", "chain": "AAGTVFTTVEDLGSKILLTCSLNDSATEVTGHRWLKGGVVLKEDALPGQKTEFKVDSDDQWGEYSCVFLPEPMGTANIQLHGPPRVKAVKSSEHINEGETAMLVCKSESVPPVTDWAWYKITDSEDKALMNGSESRFFVSSSQGRSELHIENLNMEADPGQYRCNGTSSKGSDQAIITLRVRSH", "notes": "also called BASIGIN; EMMPRIN"}, "B2": {"name": "anti-human BASIGIN humanized antibody (antibody, V domains shown)", "VH": "EVQLVESGGGLVQPGGSLRLSCAASGFTFSNFWMNWVRQAPGKGLEWVSEIRLKSNNYATHYAESVKGRFTISRDDSKNTLYLQMNSLKTEDTAVYYCTSYDYEYWGQGTLVTVSA", "VL": "DIQMTQSPSTLSASVGDRVTLSCKASENVGTYVSWYQQKPGKAPKLLIYGASNRYTGVPSRFTGSGSGTDFTLTISSLQPEDFATYYCGQSYSYPFTFGSGTKLEIK"}},
  "key": {"cyclophilin A (CyPA) [1]": {"biological_target": "T1, cyclophilin A (CyPA) (UniProt P62937 1-165)", "T1 construct": "also called 亲环素A", "T1 sequence (P62937 whole entry)": "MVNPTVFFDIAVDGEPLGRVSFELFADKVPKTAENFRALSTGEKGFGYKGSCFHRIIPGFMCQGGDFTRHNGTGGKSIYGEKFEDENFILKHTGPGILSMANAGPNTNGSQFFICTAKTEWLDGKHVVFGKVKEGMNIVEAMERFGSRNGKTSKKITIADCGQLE", "test": "ELISA; format not described"}, "cyclophilin A (CyPA) [2]": {"biological_target": "T1, cyclophilin A (CyPA)"}, "[3]": {"biological_target": "CD147 on Vero E6 host cells", "test": "cell-based or functional assay"}, "CD147-Tag fusion protein": {"biological_target": "T2, CD147-Tag fusion protein (human, UniProt P35613-2 22-205)", "T2 sequence (looked up)": "B1 chain"}, "CD147-his fusion protein": {"biological_target": "T3, CD147-his fusion protein (human, UniProt P35613 22-205)", "T3 sequence": "B1 chain"}},
  "data": [
    {"binder": "B1", "values": [
      {"measurement": "EC50", "setting": "cyclophilin A (CyPA) [1]", "result": 135, "unit": "µg/mL"},
      {"measurement": "Kd", "setting": "cyclophilin A (CyPA) [2]", "result": "~8.7", "unit": "µM"},
      {"measurement": "koff", "setting": "cyclophilin A (CyPA) [2]", "result": 0.0008, "unit": "s⁻¹"}
    ]},
    {"binder": "B2", "values": [
      {"measurement": "EC50 of inhibition of cytopathic effect of COVID-19 virus on Vero E6 cells", "setting": "[3]", "result": 36, "unit": "µg/mL"},
      {"measurement": "IC50", "setting": "CD147-Tag fusion protein", "result": 1.28, "unit": "µg/mL"},
      {"measurement": "IC50", "setting": "CD147-his fusion protein", "result": 16.4, "unit": "µg/mL"}
    ]}
  ]
}
